Results: US20200062861A1

Molecular target: Herceptin-GlcNAc
Experiment: cell-based or functional assay

## EndoSz-D234M (enzyme)
  time dependent transglycosylation (HPLC, percent of Herceptin-GlcNAc remaining): 0%
